Results: patent publication US20130172262A1 (ALPHABETA, published 2013)

B1: recombinant human Bri2(90-236) (other, not shown: small tags and cut ends)
chain: GIKYIKDDVILNEPSADAPAALYQTIEENIKIFEEEEVEFISVPVPEFADSDPANIVHDFNKKLTAYLDLNLDKCYVIPLNTSIVMPPRNLLELLINIKAGTYLPQSYLIHEHMVITDRIENIDHLGFFIYRLCHDKETYKLQRRET

What was measured:
[1] = biological target: human Aβ1-40 peptide (human); assay: cell-based or functional assay
[2] = biological target: B1; assay: ESI-MS
Method: Protein and peptides were mixed at 22° C. directly before analysis at a final protein concentration of 20 μM and a final peptide concentration of 50 μM. Data was acquired using a QTOF Ultima API mass spectrometer (Waters, Milford, Mass., USA) equipped with a Z-spray source operated in the positive-ion mode. Samples were introduced via nano-electrospray using metal-plated borosilicate glass capillary needles (Proxeon, Denmark). The source temperature was 80° C., the capillary voltage 1.7 kV, and the cone and RF lens 1 potentials were 100 and 38 V, respectively. The mass spectrometer was operated in single-reflector mode at a resolution of 10 000 (full width half maximum definition), and the mass scale was calibrated using myoglobin. Scans were acquired at a rate of 1 scan per 2 sec between 500 and 4000 m/z. The collision gas was argon at 5.2×10⁻⁵ mbar. Mass spectra were smoothed using the Waters MassLynx software.
Mass spectra were recorded to investigate the presence and stoichiometry of protein-peptide complexes in the gas phase.

Sequence of human Aβ1-40 peptide (human) (peptide, as listed by the source): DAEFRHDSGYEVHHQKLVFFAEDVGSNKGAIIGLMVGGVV

| fold prolongation of the half time of Aβ1-40 aggregation, ThT fluorescence [1] | binding result [2] | Binder |
| --- | --- | --- |
| ~4.5 times |  | B1 |
|  | binds | H-KFFEYNGKKFFE-OH (also called synthetic peptide) |
